Seven molecules from publication PMC6739345, “CAND1 regulates lunapark for the proper tubular network of the endoplasmic reticulum” (Scientific Reports, 2019) can be followed below.

Ends that are not written are not given here.

To fix the notation:
T1: MBP-fused CAND1 (human, UniProt Q86VP6 1-1230)
T1 construct: Cullin-associated and neddylation-dissociated 1 (CAND1), human; cDNA bought from the Kazusa DNA Research Institute, in pMAL-C2; also called MBP-CAND1; source: E. coli Rosetta-Gami, purified (amylose resin, eluted with maltose)
T1 sequence (looked up): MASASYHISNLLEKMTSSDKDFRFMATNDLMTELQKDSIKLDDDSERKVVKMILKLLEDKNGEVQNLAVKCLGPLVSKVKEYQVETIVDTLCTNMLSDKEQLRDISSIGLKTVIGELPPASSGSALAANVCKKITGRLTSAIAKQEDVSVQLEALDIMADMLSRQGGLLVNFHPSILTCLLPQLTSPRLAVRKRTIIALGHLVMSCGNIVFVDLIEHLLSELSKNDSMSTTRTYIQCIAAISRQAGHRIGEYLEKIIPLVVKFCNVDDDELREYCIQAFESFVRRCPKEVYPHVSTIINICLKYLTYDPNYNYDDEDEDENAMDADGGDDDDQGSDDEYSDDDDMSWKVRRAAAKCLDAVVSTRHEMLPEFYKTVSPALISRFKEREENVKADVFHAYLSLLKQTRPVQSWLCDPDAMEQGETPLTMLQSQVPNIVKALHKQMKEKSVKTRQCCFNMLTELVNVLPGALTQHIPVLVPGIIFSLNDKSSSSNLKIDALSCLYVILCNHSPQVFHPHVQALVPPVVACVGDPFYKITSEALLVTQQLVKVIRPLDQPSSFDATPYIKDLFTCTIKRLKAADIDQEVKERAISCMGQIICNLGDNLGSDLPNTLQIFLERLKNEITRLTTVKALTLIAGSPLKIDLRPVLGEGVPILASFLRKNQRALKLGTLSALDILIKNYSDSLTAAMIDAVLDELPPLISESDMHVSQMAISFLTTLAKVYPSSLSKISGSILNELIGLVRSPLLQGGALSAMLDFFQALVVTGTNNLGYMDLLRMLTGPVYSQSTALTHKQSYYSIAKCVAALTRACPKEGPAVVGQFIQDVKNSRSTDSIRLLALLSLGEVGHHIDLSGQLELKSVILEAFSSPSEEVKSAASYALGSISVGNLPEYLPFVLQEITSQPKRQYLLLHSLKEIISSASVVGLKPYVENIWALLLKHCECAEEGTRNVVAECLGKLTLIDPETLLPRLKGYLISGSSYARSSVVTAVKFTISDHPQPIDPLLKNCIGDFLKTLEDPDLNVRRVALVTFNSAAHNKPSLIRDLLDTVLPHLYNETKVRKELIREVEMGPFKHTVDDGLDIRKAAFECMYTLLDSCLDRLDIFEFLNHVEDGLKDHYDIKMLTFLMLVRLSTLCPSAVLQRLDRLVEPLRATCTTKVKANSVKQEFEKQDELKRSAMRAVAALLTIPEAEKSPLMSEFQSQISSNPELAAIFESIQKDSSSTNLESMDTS

B1: His-Lnp ΔCC (Lnp lacking the coiled-coil domain) (natural protein, human, UniProt Q9C0E8 1-428, looked up)
chain: MGGLFSRWRTKPSTVEVLESIDKEIQALEEFREKNQRLQKLWVGRLILYSSVLYLFTCLIVYLWYLPDEFTARLAMTLPFFAFPLIIWSIRTVIIFFFSKKAKECEPPSAGAAVTARPGQEIRQRTAAQRNLSPTPASPNQGPPPQVPVSPGPPKDSSAPGGPPERTVTPALSSNVLPRHLGSPATSVPGMGLHPPGPPLARPILPRERGALDRIVEYLVGDGPQNRYALICQQCFSHNGMALKEEFEYIAFRCAYCFFLNPARKTRPQAPRLPEFSFEKRQVVEGSSSVGPLPSGSVLSSDNQFNEESLEHDVLDDNTEQTDDKIPATEQTNQVIEKASDSEEPEEKQETENEEASVIETNSTVPGADSIPDPELSGESLTAE
notes: lunapark (Lnp), human, lacking the coiled-coil domain (100–143 aa), in pET28a(+); source: E. coli BL21 (DE3), purified (Ni-agarose)
B2: His-Lnp ΔUb (Lnp lacking the N-terminal ubiquitin ligase domain) (domain or fragment, human, UniProt Q9C0E8 46-428, looked up)
chain: LILYSSVLYLFTCLIVYLWYLPDEFTARLAMTLPFFAFPLIIWSIRTVIIFFFSKRTERNNEALDDLKSQRKKILEEVMEKETYKTAKLILERFDPDSKKAKECEPPSAGAAVTARPGQEIRQRTAAQRNLSPTPASPNQGPPPQVPVSPGPPKDSSAPGGPPERTVTPALSSNVLPRHLGSPATSVPGMGLHPPGPPLARPILPRERGALDRIVEYLVGDGPQNRYALICQQCFSHNGMALKEEFEYIAFRCAYCFFLNPARKTRPQAPRLPEFSFEKRQVVEGSSSVGPLPSGSVLSSDNQFNEESLEHDVLDDNTEQTDDKIPATEQTNQVIEKASDSEEPEEKQETENEEASVIETNSTVPGADSIPDPELSGESLTAE
notes: lunapark (Lnp), human, lacking Lnp Ub (the N-terminal cytoplasmic domain, 1–45 aa), in pET28a(+); The start 46 follows from the printed limits of Lnp Ub (1–45 aa); source: E. coli BL21 (DE3), purified (Ni-agarose)
B3: His-Lnp ΔTM (transmembrane domains replaced by a (GGS)3 linker) (natural protein, human)
chain: MGGLFSRWRTKPSTVEVLESIDKEIQALEEFREKNQRLQKLWVGGGSGGSGGSRTERNNEALDDLKSQRKKILEEVMEKETYKTAKLILERFDPDSKKAKECEPPSAGAAVTARPGQEIRQRTAAQRNLSPTPASPNQGPPPQVPVSPGPPKDSSAPGGPPERTVTPALSSNVLPRHLGSPATSVPGMGLHPPGPPLARPILPRERGALDRIVEYLVGDGPQNRYALICQQCFSHNGMALKEEFEYIAFRCAYCFFLNPARKTRPQAPRLPEFSFEKRQVVEGSSSVGPLPSGSVLSSDNQFNEESLEHDVLDDNTEQTDDKIPATEQTNQVIEKASDSEEPEEKQETENEEASVIETNSTVPGADSIPDPELSGESLTAE
notes: lunapark (Lnp), human, the stretch before the transmembrane domains (45–100 aa); polypeptide linker (GGS)3 in place of residues 45–100; lunapark (Lnp), human, the stretch after the transmembrane domains (45–100 aa); source: E. coli BL21 (DE3), purified (Ni-agarose)
B4: His-Lnp ΔZn + LNPARK (Lnp lacking the zinc finger motif and the following LNPARK amino acids) (natural protein, human, UniProt Q9C0E8 1-428, looked up)
chain: MGGLFSRWRTKPSTVEVLESIDKEIQALEEFREKNQRLQKLWVGRLILYSSVLYLFTCLIVYLWYLPDEFTARLAMTLPFFAFPLIIWSIRTVIIFFFSKRTERNNEALDDLKSQRKKILEEVMEKETYKTAKLILERFDPDSKKAKECEPPSAGAAVTARPGQEIRQRTAAQRNLSPTPASPNQGPPPQVPVSPGPPKDSSAPGGPPERTVTPALSSNVLPRHLGSPATSVPGMGLHPPGPPLARPILPRERGALDRIVEYLVGDGPQNRYALTRPQAPRLPEFSFEKRQVVEGSSSVGPLPSGSVLSSDNQFNEESLEHDVLDDNTEQTDDKIPATEQTNQVIEKASDSEEPEEKQETENEEASVIETNSTVPGADSIPDPELSGESLTAE
notes: lunapark (Lnp), human, lacking the zinc finger motif and the following LNPARK amino acids (275–309 aa), in pET28a(+); source: E. coli BL21 (DE3), purified (Ni-agarose)
B5: GST-Lnp Ub (N-terminal ubiquitin ligase domain of Lnp) (domain or fragment, human, UniProt Q9C0E8 1-45, looked up)
chain: {GST}-MGGLFSRWRTKPSTVEVLESIDKEIQALEEFREKNQRLQKLWVGR
notes: lunapark (Lnp), human, N-terminal cytoplasmic domain (1–45 aa, Ub), in pGEX-6P-1; source: E. coli BL21 (DE3), purified (glutathione Sepharose, eluted with glutathione)
B6: hexa histidine-tagged Lnp, wild type (natural protein, human, UniProt Q9C0E8 1-428, looked up)
chain: MGGLFSRWRTKPSTVEVLESIDKEIQALEEFREKNQRLQKLWVGRLILYSSVLYLFTCLIVYLWYLPDEFTARLAMTLPFFAFPLIIWSIRTVIIFFFSKRTERNNEALDDLKSQRKKILEEVMEKETYKTAKLILERFDPDSKKAKECEPPSAGAAVTARPGQEIRQRTAAQRNLSPTPASPNQGPPPQVPVSPGPPKDSSAPGGPPERTVTPALSSNVLPRHLGSPATSVPGMGLHPPGPPLARPILPRERGALDRIVEYLVGDGPQNRYALICQQCFSHNGMALKEEFEYIAFRCAYCFFLNPARKTRPQAPRLPEFSFEKRQVVEGSSSVGPLPSGSVLSSDNQFNEESLEHDVLDDNTEQTDDKIPATEQTNQVIEKASDSEEPEEKQETENEEASVIETNSTVPGADSIPDPELSGESLTAE
notes: lunapark (Lnp), human; cDNA amplified from a human cDNA library, in pET28a(+); also called His-Lnp; His-Lnp WT; source: E. coli BL21 (DE3), purified (Ni-agarose)
B7: GST-fused Lnp (lunapark) (natural protein, human, UniProt Q9C0E8 1-428, looked up)
chain: B6 chain
notes: lunapark (Lnp), human; cDNA amplified from a human cDNA library, in pGEX-6P-1; the same cDNA was subcloned into all vectors; also called GST-Lnp; GST-Lnp WT; source: E. coli BL21 (DE3), purified (glutathione Sepharose)

The target in data set [1] is T1, MBP-fused CAND1. Briefly: pull-down; His-Lnp WT or deletion mutants (0.5 nmol) immobilised on Ni-agarose, incubated with MBP-CAND1 or MBP alone (3 nmol) in buffer G with 10 mM imidazole, 4 °C 2 h; CBB staining. Particulars: both partners purified.
Data set [2] deals with B2. Briefly: pull-down; His-Lnp ΔUb (0.6 nmol) immobilised on Ni-agarose, incubated with GST-Lnp Ub (3 nmol) or GST alone, or with GST-Lnp Ub (1.2 nmol) and MBP-CAND1 or MBP alone (6 nmol), in buffer G with 20 mM imidazole and 1 mM DTT, 4 °C 2 h; CBB staining. As to conditions: both partners purified.
Data set [3] concerns the target T1, MBP-fused CAND1. Briefly: sucrose density gradient ultracentrifugation; His-Lnp (0.6 nmol) alone or incubated with MBP-CAND1 (2 nmol) in buffer H (20 mM Tris-HCl pH 7.5, 150 mM NaCl, 1% Triton X-100), 10–40% (w/v) sucrose gradient, 200,000 x g, 4 °C, 20 h; 17 fractions, CBB staining. As to conditions: both partners purified.
Data set [4] concerns the molecule itself. Described as above.
Data set [5] has as its target T1, MBP-fused CAND1. Briefly: pull-down; GST-Lnp or GST-Lnp Ub (0.6 nmol) immobilised on glutathione Sepharose, incubated with MBP-CAND1 (6 nmol) in buffer A with 1% Triton X-100, 4 °C 2 h; CBB staining. Particulars: both partners purified.

Turning to B1, the binding result in data set [1] is “binds”.
Same read-out and setting: the value for B2 was “binds”; that for B3 was “binds”.
The same measure, in the same setting: the value for B4 was “binds”.
With B5, the binding result in data set [2] was “binds”.
With B6, the binding result in data set [3] and in data set [4] was “binds” throughout.
B7: in data set [5], the binding result is on record as “binds”.
